± gives the uncertainty stated by the source.

A short description of the series: amyloid nucleation score relative to WT ADan (yeast Sup35 reporter selection) (log enrichment difference); higher = more amyloid nucleation. The procedure:
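Deep mutational scan of the ADan peptide fused to the Sup35 nucleation domain (SupN) in S. cerevisiae [psi-pin-], covering all single amino-acid substitutions and stop truncations (truncations = sequence up to the stop). After 24 h Cu2+ induction, cells were selected on -ADE-URA plates for 7 d at 30 °C. The nucleation score is log enrichment (output/input, deep sequencing) minus that of WT ADan, as the error-weighted mean of 3 biological replicates (DiMSum).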
Substance EAS [N-4-*] came in with an amyloid nucleation score of -2.54 ± 0.48.

Regarding EASN [C-5-*], the amyloid nucleation score was -4.07 ± 0.81.

Turning to EASNC [F-6-*], the amyloid nucleation score was -3.12 ± 0.32.

EASNCF [A-7-*] displayed an amyloid nucleation score of -4.37 ± 0.56.

For the substance EASNCFA [I-8-*], the amyloid nucleation score was -3.92 ± 0.58.

Turning to EASNCFAI [R-9-*], the amyloid nucleation score was -3.67 ± 0.55.

Regarding EASNCFAIR [H-10-*], the amyloid nucleation score is -4.06 ± 0.6.

In turn, EASNCFAIRH [F-11-*] displayed an amyloid nucleation score of -3.45 ± 0.39.

Consider EASNCFAIRHF [E-12-*], for which the amyloid nucleation score is -3.42 ± 0.34.

Turning to EASNCFAIRHFE [N-13-*], the amyloid nucleation score was -5.86 ± 0.85.

For the substance EASNCFAIRHFEN [K-14-*], the amyloid nucleation score is -4.92 ± 0.57.

As for EASNCFAIRHFENK [F-15-*], the amyloid nucleation score is -4.43 ± 0.56.

As to EASNCFAIRHFENKF [A-16-*], the amyloid nucleation score was -4.34 ± 0.67.

In turn, EASNCFAIRHFENKFA [V-17-*] showed an amyloid nucleation score of -5.63 ± 1.4.

Substance EASNCFAIRHFENKFAV [E-18-*] showed an amyloid nucleation score of -3.23 ± 0.49.

Substance EASNCFAIRHFENKFAVE [T-19-*] displayed an amyloid nucleation score of -3.43 ± 0.55.

As to EASNCFAIRHFENKFAVET [L-20-*], the amyloid nucleation score was -4.16 ± 0.68.

Values taken from the supplement of paper PMC12067230.
